Measured values: article PMC4596520

What was measured:
Experiment in all cases: SPR
Conditions in all cases: read off a plot
[1] = target: hexa-His-tagged recombinant soluble human Fcγ receptor I (UniProt P12314)
[2] = target: hexa-His-tagged recombinant soluble human Fcγ receptor IIa, 134R (UniProt P12318)
[3] = target: hexa-His-tagged recombinant soluble human Fcγ receptor IIIa, 158F (UniProt P08637)
UniProt P08637, sequence (P08637 17-208): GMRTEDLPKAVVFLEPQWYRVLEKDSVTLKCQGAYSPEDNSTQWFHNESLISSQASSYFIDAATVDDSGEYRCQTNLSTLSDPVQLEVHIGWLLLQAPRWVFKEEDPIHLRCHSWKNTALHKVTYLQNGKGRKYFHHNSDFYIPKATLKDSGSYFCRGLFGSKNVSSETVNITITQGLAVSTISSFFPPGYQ

UniProt P12314, sequence (P12314 16-292): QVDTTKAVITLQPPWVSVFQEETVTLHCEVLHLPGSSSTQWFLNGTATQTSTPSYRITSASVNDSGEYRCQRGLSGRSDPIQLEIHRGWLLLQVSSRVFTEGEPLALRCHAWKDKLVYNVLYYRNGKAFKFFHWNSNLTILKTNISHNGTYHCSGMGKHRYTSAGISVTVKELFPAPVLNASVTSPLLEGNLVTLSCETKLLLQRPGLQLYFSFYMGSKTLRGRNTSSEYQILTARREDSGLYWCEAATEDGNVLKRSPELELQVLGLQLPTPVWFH
UniProt P12318, sequence (P12318 34-217 H167R): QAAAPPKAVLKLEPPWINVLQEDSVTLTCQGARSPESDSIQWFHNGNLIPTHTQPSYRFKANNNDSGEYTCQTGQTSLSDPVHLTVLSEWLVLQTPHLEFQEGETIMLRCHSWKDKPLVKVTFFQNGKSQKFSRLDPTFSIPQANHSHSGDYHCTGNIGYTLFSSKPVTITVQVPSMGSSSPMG

fucosylated anti-CD20 chimeric IgG1 rituximab with a wild-type Fc region Y296C
Kd ([1]; parent: est. 11): 9.8 ×10^-8 M
Kd ([2]; parent: est. 18): 10 ×10^-7 M
Kd ([3]; parent: est. 17): 17 ×10^-7 M

fucosylated anti-CD20 chimeric IgG1 rituximab with a wild-type Fc region Y296D
Kd ([1]; parent: est. 11): 11 ×10^-8 M
Kd ([2]; parent: est. 18): 12 ×10^-7 M
Kd ([3]; parent: est. 17): 17 ×10^-7 M

fucosylated anti-CD20 chimeric IgG1 rituximab with a wild-type Fc region Y296E
Kd ([1]; parent: est. 11): 12 ×10^-8 M
Kd ([2]; parent: est. 18): 11 ×10^-7 M
Kd ([3]; parent: est. 17): 20 ×10^-7 M

fucosylated anti-CD20 chimeric IgG1 rituximab with a wild-type Fc region Y296F
Kd ([1]; parent: est. 11): 11 ×10^-8 M
Kd ([2]; parent: est. 18): 9.5 ×10^-7 M
Kd ([3]; parent: est. 17): 21 ×10^-7 M

fucosylated anti-CD20 chimeric IgG1 rituximab with a wild-type Fc region Y296G
Kd ([1]; parent: est. 11): 14 ×10^-8 M
Kd ([2]; parent: est. 18): 13 ×10^-7 M
Kd ([3]; parent: est. 17): 56 ×10^-7 M

fucosylated anti-CD20 chimeric IgG1 rituximab with a wild-type Fc region Y296H
Kd ([1]; parent: est. 11): 11 ×10^-8 M
Kd ([2]; parent: est. 18): 11 ×10^-7 M

fucosylated anti-CD20 chimeric IgG1 rituximab with a wild-type Fc region Y296I
Kd ([1]; parent: est. 11): 10 ×10^-8 M
Kd ([2]; parent: est. 18): 12 ×10^-7 M

fucosylated anti-CD20 chimeric IgG1 rituximab with a wild-type Fc region Y296L
Kd ([1]; parent: est. 11): 11 ×10^-8 M
Kd ([2]; parent: est. 18): 9 ×10^-7 M

fucosylated anti-CD20 chimeric IgG1 rituximab with a wild-type Fc region Y296M
Kd ([1]; parent: est. 11): 10 ×10^-8 M
Kd ([2]; parent: est. 18): 13 ×10^-7 M

fucosylated anti-CD20 chimeric IgG1 rituximab with a wild-type Fc region Y296N
Kd ([1]; parent: est. 11): 10 ×10^-8 M
Kd ([2]; parent: est. 18): 12 ×10^-7 M

fucosylated anti-CD20 chimeric IgG1 rituximab with a wild-type Fc region Y296P
Kd ([1]; parent: est. 11): 18 ×10^-8 M

fucosylated anti-CD20 chimeric IgG1 rituximab with a wild-type Fc region Y296Q
Kd ([1]; parent: est. 11): 9.6 ×10^-8 M
Kd ([2]; parent: est. 18): 11 ×10^-7 M
Kd ([3]; parent: est. 17): 27 ×10^-7 M

fucosylated anti-CD20 chimeric IgG1 rituximab with a wild-type Fc region Y296R
Kd ([1]; parent: est. 11): 10 ×10^-8 M
Kd ([2]; parent: est. 18): 12 ×10^-7 M
Kd ([3]; parent: est. 17): 41 ×10^-7 M

fucosylated anti-CD20 chimeric IgG1 rituximab with a wild-type Fc region Y296S
Kd ([1]; parent: est. 11): 10 ×10^-8 M
Kd ([2]; parent: est. 18): 13 ×10^-7 M
Kd ([3]; parent: est. 17): 30 ×10^-7 M

fucosylated anti-CD20 chimeric IgG1 rituximab with a wild-type Fc region Y296T
Kd ([1]; parent: est. 11): 12 ×10^-8 M
Kd ([2]; parent: est. 18): 12 ×10^-7 M
Kd ([3]; parent: est. 17): 32 ×10^-7 M

fucosylated anti-CD20 chimeric IgG1 rituximab with a wild-type Fc region Y296V
Kd ([1]; parent: est. 11): 10 ×10^-8 M
Kd ([2]; parent: est. 18): 14 ×10^-7 M

nonfucosylated anti-CD20 chimeric IgG1 rituximab with a wild-type Fc region Y296C
Kd ([1]; parent: est. 2.3): 3.3 ×10^-8 M
Kd ([2]; parent: est. 12): 8 ×10^-7 M
Kd ([3]; parent: est. 5.0): 6.5 ×10^-7 M

nonfucosylated anti-CD20 chimeric IgG1 rituximab with a wild-type Fc region Y296D
Kd ([1]; parent: est. 2.3): 2.7 ×10^-8 M
Kd ([2]; parent: est. 12): 9.5 ×10^-7 M
Kd ([3]; parent: est. 5.0): 6 ×10^-7 M

nonfucosylated anti-CD20 chimeric IgG1 rituximab with a wild-type Fc region Y296E
Kd ([1]; parent: est. 2.3): 2.7 ×10^-8 M
Kd ([3]; parent: est. 5.0): 9 ×10^-7 M

nonfucosylated anti-CD20 chimeric IgG1 rituximab with a wild-type Fc region Y296F
Kd ([1]; parent: est. 2.3): 2.6 ×10^-8 M
Kd ([2]; parent: est. 12): 9.8 ×10^-7 M
Kd ([3]; parent: est. 5.0): 6 ×10^-7 M

nonfucosylated anti-CD20 chimeric IgG1 rituximab with a wild-type Fc region Y296H
Kd ([1]; parent: est. 2.3): 3 ×10^-8 M
Kd ([2]; parent: est. 12): 7.5 ×10^-7 M
Kd ([3]; parent: est. 5.0): 6.5 ×10^-7 M

nonfucosylated anti-CD20 chimeric IgG1 rituximab with a wild-type Fc region Y296I
Kd ([1]; parent: est. 2.3): 3.2 ×10^-8 M
Kd ([2]; parent: est. 12): 10 ×10^-7 M
Kd ([3]; parent: est. 5.0): 9.5 ×10^-7 M

nonfucosylated anti-CD20 chimeric IgG1 rituximab with a wild-type Fc region Y296L
Kd ([1]; parent: est. 2.3): 2.8 ×10^-8 M
Kd ([2]; parent: est. 12): 11 ×10^-7 M
Kd ([3]; parent: est. 5.0): 10 ×10^-7 M

nonfucosylated anti-CD20 chimeric IgG1 rituximab with a wild-type Fc region Y296M
Kd ([1]; parent: est. 2.3): 3.2 ×10^-8 M
Kd ([2]; parent: est. 12): 11 ×10^-7 M
Kd ([3]; parent: est. 5.0): 9.5 ×10^-7 M

nonfucosylated anti-CD20 chimeric IgG1 rituximab with a wild-type Fc region Y296N
Kd ([1]; parent: est. 2.3): 3.2 ×10^-8 M
Kd ([2]; parent: est. 12): 11 ×10^-7 M
Kd ([3]; parent: est. 5.0): 8 ×10^-7 M

nonfucosylated anti-CD20 chimeric IgG1 rituximab with a wild-type Fc region Y296P
Kd ([1]; parent: est. 2.3): 7.4 ×10^-8 M

nonfucosylated anti-CD20 chimeric IgG1 rituximab with a wild-type Fc region Y296Q
Kd ([1]; parent: est. 2.3): 3.2 ×10^-8 M
Kd ([2]; parent: est. 12): 11 ×10^-7 M
Kd ([3]; parent: est. 5.0): 10 ×10^-7 M

nonfucosylated anti-CD20 chimeric IgG1 rituximab with a wild-type Fc region Y296R
Kd ([1]; parent: est. 2.3): 3.3 ×10^-8 M
Kd ([2]; parent: est. 12): 10 ×10^-7 M

nonfucosylated anti-CD20 chimeric IgG1 rituximab with a wild-type Fc region Y296S
Kd ([1]; parent: est. 2.3): 3.4 ×10^-8 M
Kd ([2]; parent: est. 12): 9.2 ×10^-7 M
Kd ([3]; parent: est. 5.0): 11 ×10^-7 M

nonfucosylated anti-CD20 chimeric IgG1 rituximab with a wild-type Fc region Y296T
Kd ([1]; parent: est. 2.3): 3 ×10^-8 M
Kd ([2]; parent: est. 12): 9.6 ×10^-7 M
Kd ([3]; parent: est. 5.0): 10 ×10^-7 M

nonfucosylated anti-CD20 chimeric IgG1 rituximab with a wild-type Fc region Y296V
Kd ([1]; parent: est. 2.3): 3 ×10^-8 M
Kd ([2]; parent: est. 12): 11 ×10^-7 M
Kd ([3]; parent: est. 5.0): 9 ×10^-7 M
